The target in this data set is TRIM16 GST-fusion protein (substrate of the ULK1 kinase assay).

B1: Flag-ULK1 wt (protein)
chain: MEPGRGGTETVGKFEFSRKDLIGHGAFAVVFKGRHREKHDLEVAVKCINKKNLAKSQTLLGKEIKILKELKHENIVALYDFQEMANSVYLVMEYCNGGDLADYLHAMRTLSEDTIRLFLQQIAGAMRLLHSKGIIHRDLKPQNILLSNPAGRRANPNSIRVKIADFGFARYLQSNMMAATLCGSPMYMAPEVIMSQHYDGKADLWSIGTIVYQCLTGKAPFQASSPQDLRLFYEKNKTLVPTIPRETSAPLRQLLLALLQRNHKDRMDFDEFFHHPFLDASPSVRKSPPVPVPSYPSSGSGSSSSSSSTSHLASPPSLGEMQQLQKTLASPADTAGFLHSSRDSGGSKDSSCDTDDFVMVPAQFPGDLVAEAPSAKPPPDSLMCSGSSLVASAGLESHGRTPSPSPPCSSSPSPSGRAGPFSSSRCGASVPIPVPTQVQNYQRIERNLQSPTQFQTPRSSAIRRSGSTSPLGFARASPSPPAHAEHGGVLARKMSLGGGRPYTPSPQVGTIPERPGWSGTPSPQGAEMRGGRSPRPGSSAPEHSPRTSGLGCRLHSAPNLSDLHVVRPKLPKPPTDPLGAVFSPPQASPPQPSHGLQSCRNLRGSPKLPDFLQRNPLPPILGSPTKAVPSFDFPKTPSSQNLLALLARQGVVMTPPRNRTLPDLSEVGPFHGQPLGPGLRPGEDPKGPFGRSFSTSRLTDLLLKAAFGTQAPDPGSTESLQEKPMEIAPSAGFGGSLHPGARAGGTSSPSPVVFTVGSPPSGSTPPQGPRTRMFSAGPTGSASSSARHLVPGPCSEAPAPELPAPGHGCSFADPITANLEGAVTFEAPDLPEETLMEQEHTEILRGLRFTLLFVQHVLEIAALKGSASEAAGGPEYQLQESVVADQISLLSREWGFAEQLVLYLKVAELLSSGLQSAIDQIRAGKLCLSSTVKQVVRRLNELYKASVVSCQGLSLRLQRFFLDKQRLLDRIHSITAERLIFSHAVQMVQSAALDEMFQHREGCVPRYHKALLLLEGLQHMLSDQADIENVTKCKLCIERRLSALLTGICA
Take B1: the “in vitro phosphorylation (γ32P ATP, autoradiography), wt vs kinase-dead K46I ULK1” value is listed as “comparing active vs. kinase dead ULK1 we established that TRIM16 was a substrate for ULK1 phosphorylation”.

The record behind these values is US20240261378.
